For one assay, the target named is T1, αvβ5 (Homo sapiens, UniProt P06756+P18084).
T1 construct: using coated extracellular matrix proteins and soluble integrins
Description: Solid-phase integrin binding assay, αvβ5 (coated Vitronectin). As to the method:
(§1) The activity and selectivity of integrin ligands were determined by a solid-phase binding assay according to the previously reported protocols using coated extracellular matrix proteins and soluble integrins: Fibronectin (Fn) for α5β1, latent activating protein (LAP) for αvβ6 and αvβ8, Vitronectin (Vn) for αvβ3 and αvβ5, Fibrinogen (Fbg) for aIIbβ3.

The target of a further assay is T2, αvβ3 (Homo sapiens, UniProt P05106+P06756).
T2 construct: using coated extracellular matrix proteins and soluble integrins
T2 sequence (P06756 31-992 limits assumed): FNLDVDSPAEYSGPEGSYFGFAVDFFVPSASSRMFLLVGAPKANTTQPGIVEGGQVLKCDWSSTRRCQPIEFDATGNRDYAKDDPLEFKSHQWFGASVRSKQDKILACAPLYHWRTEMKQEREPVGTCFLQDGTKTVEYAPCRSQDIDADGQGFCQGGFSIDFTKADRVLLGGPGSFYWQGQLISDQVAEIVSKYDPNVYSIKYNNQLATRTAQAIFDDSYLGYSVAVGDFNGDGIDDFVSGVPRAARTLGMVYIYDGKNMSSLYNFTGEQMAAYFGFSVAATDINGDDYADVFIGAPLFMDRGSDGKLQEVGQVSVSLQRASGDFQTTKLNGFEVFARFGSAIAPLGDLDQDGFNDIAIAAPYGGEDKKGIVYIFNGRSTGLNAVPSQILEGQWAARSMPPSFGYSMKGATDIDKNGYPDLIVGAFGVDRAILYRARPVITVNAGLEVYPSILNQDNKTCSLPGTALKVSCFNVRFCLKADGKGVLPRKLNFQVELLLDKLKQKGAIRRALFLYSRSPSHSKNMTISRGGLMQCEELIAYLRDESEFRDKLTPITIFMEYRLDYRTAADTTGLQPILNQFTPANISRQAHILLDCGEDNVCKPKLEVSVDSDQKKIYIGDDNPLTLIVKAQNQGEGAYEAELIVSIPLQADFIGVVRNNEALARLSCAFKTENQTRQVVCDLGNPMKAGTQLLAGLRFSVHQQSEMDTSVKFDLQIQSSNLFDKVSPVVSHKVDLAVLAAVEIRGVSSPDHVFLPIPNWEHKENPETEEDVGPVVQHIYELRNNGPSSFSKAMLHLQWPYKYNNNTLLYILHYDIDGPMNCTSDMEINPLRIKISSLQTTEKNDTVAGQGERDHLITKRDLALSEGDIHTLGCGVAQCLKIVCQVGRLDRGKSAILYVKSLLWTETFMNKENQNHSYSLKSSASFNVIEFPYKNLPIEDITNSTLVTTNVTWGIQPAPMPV
T2 sequence (P05106 27-718 limits assumed): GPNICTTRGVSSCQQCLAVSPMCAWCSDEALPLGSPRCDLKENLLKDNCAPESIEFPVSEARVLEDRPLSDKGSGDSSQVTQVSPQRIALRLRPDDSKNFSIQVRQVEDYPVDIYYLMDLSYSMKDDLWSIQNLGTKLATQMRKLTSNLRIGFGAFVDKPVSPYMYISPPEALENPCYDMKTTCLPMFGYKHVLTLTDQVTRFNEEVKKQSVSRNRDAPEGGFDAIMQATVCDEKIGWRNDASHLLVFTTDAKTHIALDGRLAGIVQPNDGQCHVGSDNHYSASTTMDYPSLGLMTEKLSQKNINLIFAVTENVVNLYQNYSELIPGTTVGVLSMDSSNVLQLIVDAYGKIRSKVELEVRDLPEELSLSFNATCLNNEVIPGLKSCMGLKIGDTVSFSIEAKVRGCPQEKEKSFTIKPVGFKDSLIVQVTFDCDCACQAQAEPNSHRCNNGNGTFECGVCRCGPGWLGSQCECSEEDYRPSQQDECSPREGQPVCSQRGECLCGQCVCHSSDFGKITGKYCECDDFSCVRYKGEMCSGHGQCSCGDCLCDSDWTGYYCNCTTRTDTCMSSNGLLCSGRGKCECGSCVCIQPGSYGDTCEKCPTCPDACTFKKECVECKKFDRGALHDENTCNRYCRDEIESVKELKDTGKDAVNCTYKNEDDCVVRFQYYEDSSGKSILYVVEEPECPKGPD
Briefly: Solid-phase integrin binding assay, αvβ3 (coated Vitronectin). Here is the method: as §1

The target of the next assay is αvβ6 (Homo sapiens, UniProt P06756+P18564). Briefly: Solid-phase integrin binding assay, αvβ6 (coated LAP, soluble integrin). Details: using coated extracellular matrix proteins and soluble integrins. Here is the method:
as §1

For another assay, the target named is T3, αIIbβ3 (Homo sapiens, UniProt P05106+P08514).
T3 construct: using coated extracellular matrix proteins and soluble integrins
Description: Solid-phase integrin binding assay, αIIbβ3 (coated Fibrinogen). Here is the method: as §1

Assay [1] concerns the target T4, integrin αvβ3 (soluble integrin) (UniProt P06756 31-992; P05106 27-718).
T4 construct: Only 'soluble integrins' is said
Description: solid-phase binding assay, competition; coated vitronectin, soluble αvβ3.

In assay [2] the target is T5, integrin αvβ6 (soluble integrin) (UniProt P06756 31-992; P18564 22-707).
T5 construct: Only 'soluble integrins' is said
T5 sequence (P06756 31-992, chain 1 of 2): as the sequence (P06756 31-992 limits assumed) above
T5 sequence (P18564 22-707, chain 2 of 2): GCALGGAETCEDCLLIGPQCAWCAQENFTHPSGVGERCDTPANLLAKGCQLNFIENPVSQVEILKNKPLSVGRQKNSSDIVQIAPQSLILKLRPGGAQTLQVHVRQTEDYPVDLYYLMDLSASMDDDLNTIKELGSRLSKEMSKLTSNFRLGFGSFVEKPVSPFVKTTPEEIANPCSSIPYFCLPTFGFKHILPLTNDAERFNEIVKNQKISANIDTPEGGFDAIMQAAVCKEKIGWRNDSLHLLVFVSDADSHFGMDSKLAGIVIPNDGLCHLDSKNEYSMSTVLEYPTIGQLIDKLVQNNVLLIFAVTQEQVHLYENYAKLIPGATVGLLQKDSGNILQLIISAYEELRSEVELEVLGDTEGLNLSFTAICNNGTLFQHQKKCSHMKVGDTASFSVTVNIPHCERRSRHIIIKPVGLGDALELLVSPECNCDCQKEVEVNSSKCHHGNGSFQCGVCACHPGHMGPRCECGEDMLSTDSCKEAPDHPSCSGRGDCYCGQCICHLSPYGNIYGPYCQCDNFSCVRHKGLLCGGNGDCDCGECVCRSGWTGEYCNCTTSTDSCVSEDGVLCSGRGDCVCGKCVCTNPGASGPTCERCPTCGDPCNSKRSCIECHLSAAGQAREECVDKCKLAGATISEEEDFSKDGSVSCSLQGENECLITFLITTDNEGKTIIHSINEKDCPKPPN
Briefly: solid-phase binding assay, competition; coated LAP, soluble αvβ6.

Assay [3] deals with T6, integrin αvβ8 (soluble integrin) (UniProt P06756 31-992; P26012 43-684).
T6 construct: Only 'soluble integrins' is said
T6 sequence (P06756 31-992, chain 1 of 2): as the sequence (P06756 31-992 limits assumed) above
T6 sequence (P26012 43-684, chain 2 of 2): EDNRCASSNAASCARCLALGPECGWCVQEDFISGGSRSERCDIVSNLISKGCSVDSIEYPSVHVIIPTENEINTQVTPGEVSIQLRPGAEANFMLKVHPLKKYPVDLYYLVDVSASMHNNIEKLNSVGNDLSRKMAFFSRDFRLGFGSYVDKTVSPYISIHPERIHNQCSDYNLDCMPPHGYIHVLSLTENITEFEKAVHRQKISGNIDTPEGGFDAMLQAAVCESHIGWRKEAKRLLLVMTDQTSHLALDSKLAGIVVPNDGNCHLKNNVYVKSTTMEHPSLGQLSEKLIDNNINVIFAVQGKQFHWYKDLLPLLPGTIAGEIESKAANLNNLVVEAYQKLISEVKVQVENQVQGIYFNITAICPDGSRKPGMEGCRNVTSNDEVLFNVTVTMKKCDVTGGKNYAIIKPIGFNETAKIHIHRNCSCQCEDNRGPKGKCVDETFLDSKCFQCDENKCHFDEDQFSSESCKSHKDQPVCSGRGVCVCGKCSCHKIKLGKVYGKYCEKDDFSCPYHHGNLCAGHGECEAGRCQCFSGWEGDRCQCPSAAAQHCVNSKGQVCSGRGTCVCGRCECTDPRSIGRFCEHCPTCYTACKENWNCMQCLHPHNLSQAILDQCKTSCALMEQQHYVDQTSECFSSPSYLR
Description: solid-phase binding assay, competition; coated LAP, soluble αvβ8.

The target of assay [4] is T7, integrin α5β1 (soluble integrin) (UniProt P08648 42-995; P05556 21-728).
T7 construct: Only 'soluble integrins' is said
Description: solid-phase binding assay, competition; coated fibronectin, soluble α5β1.

Where [5] appears, read: solid-phase binding assay, Vitronectin coated, read-out: αvβ5, IC50.
The mark [6] stands for this setting: solid-phase binding assay, Vitronectin coated, read-out: αvβ3, IC50.
The mark [7] stands for this setting: solid-phase binding assay, Fibrinogen coated, read-out: αIIbβ3, IC50.

Like-named read-outs stand apart in the source and are kept apart here. Square brackets hold non-standard residues; d marks the D form. Peptide text beside a SMILES is read from it. NMeK = CN[C@@H](CCCCN)C(=O)O; dNMeK = CN[C@H](CCCCN)C(=O)O; Sar = CNCC(=O)O

As usually defined, the IC50 is the midpoint of a concentration-inhibition curve.

T4 sequence (P06756 31-992, chain 1 of 2): as the sequence (P06756 31-992 limits assumed) above
T4 sequence (P05106 27-718, chain 2 of 2): as the sequence (P05106 27-718 limits assumed) above
T1 sequence (P06756 31-1048): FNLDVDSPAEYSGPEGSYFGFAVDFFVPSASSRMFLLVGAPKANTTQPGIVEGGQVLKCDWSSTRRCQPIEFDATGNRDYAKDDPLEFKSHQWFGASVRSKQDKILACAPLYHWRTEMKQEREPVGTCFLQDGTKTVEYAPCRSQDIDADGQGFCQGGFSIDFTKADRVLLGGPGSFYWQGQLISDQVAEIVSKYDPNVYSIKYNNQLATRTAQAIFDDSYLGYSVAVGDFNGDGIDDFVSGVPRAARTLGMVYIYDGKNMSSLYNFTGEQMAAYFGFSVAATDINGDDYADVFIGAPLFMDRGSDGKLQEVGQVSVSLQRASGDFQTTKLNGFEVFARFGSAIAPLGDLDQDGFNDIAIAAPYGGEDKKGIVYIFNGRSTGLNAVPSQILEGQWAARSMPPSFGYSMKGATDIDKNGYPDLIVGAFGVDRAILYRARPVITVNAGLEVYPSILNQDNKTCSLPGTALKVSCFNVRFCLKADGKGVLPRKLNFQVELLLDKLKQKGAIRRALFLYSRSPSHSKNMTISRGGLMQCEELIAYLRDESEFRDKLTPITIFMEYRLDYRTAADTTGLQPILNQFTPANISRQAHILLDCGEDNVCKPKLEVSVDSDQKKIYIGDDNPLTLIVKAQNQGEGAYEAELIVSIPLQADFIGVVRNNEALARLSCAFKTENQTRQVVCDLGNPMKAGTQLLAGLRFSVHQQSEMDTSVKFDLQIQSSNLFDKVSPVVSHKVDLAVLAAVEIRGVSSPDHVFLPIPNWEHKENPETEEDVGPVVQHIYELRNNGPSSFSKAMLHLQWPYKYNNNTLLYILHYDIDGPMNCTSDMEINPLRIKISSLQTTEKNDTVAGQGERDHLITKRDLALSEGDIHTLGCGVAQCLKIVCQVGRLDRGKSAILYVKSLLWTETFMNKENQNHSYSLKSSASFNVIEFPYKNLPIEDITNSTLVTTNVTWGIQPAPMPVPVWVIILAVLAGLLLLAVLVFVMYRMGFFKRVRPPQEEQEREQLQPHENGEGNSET
T1 sequence (P18084 24-799): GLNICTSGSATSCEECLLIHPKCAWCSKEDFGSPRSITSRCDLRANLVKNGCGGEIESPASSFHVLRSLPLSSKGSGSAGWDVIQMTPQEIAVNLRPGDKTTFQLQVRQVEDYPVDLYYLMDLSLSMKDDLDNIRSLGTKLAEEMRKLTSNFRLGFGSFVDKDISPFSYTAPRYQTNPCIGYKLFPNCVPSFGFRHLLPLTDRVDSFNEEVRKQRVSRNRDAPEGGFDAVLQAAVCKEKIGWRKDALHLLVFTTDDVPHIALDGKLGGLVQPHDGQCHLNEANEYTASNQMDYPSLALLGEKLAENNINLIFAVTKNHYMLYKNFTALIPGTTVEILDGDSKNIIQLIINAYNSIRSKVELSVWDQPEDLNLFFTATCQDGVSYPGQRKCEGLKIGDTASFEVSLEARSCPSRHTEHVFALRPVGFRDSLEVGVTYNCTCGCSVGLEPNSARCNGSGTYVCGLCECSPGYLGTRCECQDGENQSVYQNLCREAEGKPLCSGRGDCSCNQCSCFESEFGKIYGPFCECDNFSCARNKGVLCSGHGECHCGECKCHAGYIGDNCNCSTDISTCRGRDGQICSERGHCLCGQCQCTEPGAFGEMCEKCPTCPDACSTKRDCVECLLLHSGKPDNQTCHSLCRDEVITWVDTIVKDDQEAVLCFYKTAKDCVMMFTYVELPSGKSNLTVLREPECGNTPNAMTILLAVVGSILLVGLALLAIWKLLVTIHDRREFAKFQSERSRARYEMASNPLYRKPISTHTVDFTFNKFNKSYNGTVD

Regarding `CC(C)C[C@@H]1NC(=O)[C@H](CC(=O)O)NC(=O)CNC(=O)[C@H](CCCNC(=N)N)NC(=O)[C@H](C)NC(=O)[C@@H]2CCCN2C(=O)[C@H]2CCCN2C(=O)[C@H](CC(C)C)NC(=O)[C@H](C)NC1=O` [Compound 4, A R G D L A L p P] (cyclo(ARGDLAL[dP]P)), the half-maximal inhibitory concentration (IC50) at αvβ5 (setting [5]) was above 1000 nM; on αvβ3 (setting [6]) it was 106 nM; at αvβ6, 3 nM; on αIIbβ3 (setting [7]) it was above 1000 nM.

Take `CC(C)C[C@@H]1NC(=O)[C@H](CC(=O)O)NC(=O)CNC(=O)[C@H](CCCNC(=N)N)NC(=O)[C@H](C)NC(=O)[C@@H]2CCCN2C(=O)[C@H]2CCCN2C(=O)[C@H](CCCCN)NC(=O)[C@H](C)NC1=O` [Compound 11, A R G D L A K p P] (cyclo(ARGDLAK[dP]P)): the concentration for half-maximal inhibition (IC50) at αvβ5 (setting [5]) is above 1000 nM; on αvβ3 (setting [6]) it was 302 nM; on αvβ6, 1.51 nM; at αIIbβ3 (setting [7]), above 1000 nM.

As for `CC(C)C[C@@H]1NC(=O)[C@H](CC(=O)O)NC(=O)CNC(=O)[C@H](CCCNC(=N)N)NC(=O)[C@H](C)NC(=O)[C@@H]2CCCN2C(=O)[C@H]2CCCN2C(=O)[C@H](CC(C)C)NC(=O)[C@H](C)NC(=O)[C@H](C)NC1=O` [Compound 1, A R G D L A A L p P] (cyclo(RGDLAAL[dP]PA)), the IC50 on αvβ5 is above 1000 nM; at αvβ3, 76.7 nM; at αvβ6, 8.3 nM; at αIIbβ3, above 1000 nM.

`CC(=O)NCCCC[C@H]1C(=O)N[C@@H](Cc2ccccc2)C(=O)N[C@@H](CCCNC(=N)N)C(=O)NCC(=O)N[C@@H](CC(=O)O)C(=O)N[C@@H](CC(C)C)C(=O)N[C@@H](C)C(=O)N[C@@H](Cc2ccccc2)C(=O)N2CCC[C@@H]2C(=O)N1C` [Compound 23, F R G D L A F p (NMe)K^[f]]: the half-inhibitory concentration (IC50) is above 1000 nM on αvβ5 (setting [5]), 640 nM at αvβ3 (setting [6]), 0.3 nM on αvβ6 and above 1000 nM at αIIbβ3 (setting [7]).

As for `CC(C)C[C@@H]1NC(=O)[C@H](CC(=O)O)NC(=O)CNC(=O)[C@H](CCCNC(=N)N)NC(=O)[C@H](C)NC(=O)[C@@H]2CCCN2C(=O)[C@H]2CCCN2C(=O)[C@H](CC(C)C)NC(=O)[C@@H](CC(=O)O)NC1=O` [Compound 7, A R G D L d L p P] (cyclo(ARGDL[dD]L[dP]P)), at αvβ3 (setting [6]), the IC50 was above 1000 nM.

With `CC(C)C[C@@H]1NC(=O)[C@H](CC(=O)O)NC(=O)CNC(=O)[C@H](CCCNC(=N)N)NC(=O)[C@H](C)NC(=O)[C@@H]2CCCN2C(=O)[C@H]2CCCN2C(=O)[C@H](Cc2ccccc2)NC(=O)[C@H](C)NC1=O` [Compound 10, A R G D L A F p P] (cyclo(ARGDLAF[dP]P)), the values for the IC50 at αvβ3 (setting [6]) and at αvβ6 were 104 nM and 0.67 nM, respectively.

cyclo(ARGDLAL[dNMeK]P) (Comparative compound (*)) [Compound 16, cyclic peptide A R G D L A L (NMe)k P]: the IC50 worked out at 50.4 nM in assay [1] and 11.4 nM in assay [2].

B1: Compound 2, cyclic peptide A R G D A A A L p P (peptide)
peptide: cyclo(ARGDAAAL[dP]P)
SMILES: CC(C)C[C@@H]1NC(=O)[C@H](C)NC(=O)[C@H](C)NC(=O)[C@H](C)NC(=O)[C@H](CC(=O)O)NC(=O)CNC(=O)[C@H](CCCNC(=N)N)NC(=O)[C@H](C)NC(=O)[C@@H]2CCCN2C(=O)[C@H]2CCCN2C1=O
notes: Comparative compound (*)
As to B1, the IC50 in assay [2] turned out to be 320 nM.

B2: Compound 3, cyclic peptide A R G D L A A A p P (peptide)
peptide: cyclo(ARGDLAAA[dP]P)
SMILES: CC(C)C[C@@H]1NC(=O)[C@H](CC(=O)O)NC(=O)CNC(=O)[C@H](CCCNC(=N)N)NC(=O)[C@H](C)NC(=O)[C@@H]2CCCN2C(=O)[C@H]2CCCN2C(=O)[C@H](C)NC(=O)[C@H](C)NC(=O)[C@H](C)NC1=O
notes: Comparative compound (*)
With B2, the half-maximal inhibitory concentration (IC50) in assay [2] turned out to be 15.4 nM.

B3: Compound 6, cyclic peptide A R G D L p P (peptide)
peptide: cyclo(ARGDL[dP]P)
SMILES: CC(C)C[C@@H]1NC(=O)[C@H](CC(=O)O)NC(=O)CNC(=O)[C@H](CCCNC(=N)N)NC(=O)[C@H](C)NC(=O)[C@@H]2CCCN2C(=O)[C@H]2CCCN2C1=O
notes: Comparative compound (*)
B3 displayed a concentration for half-maximal inhibition (IC50) in assay [2] of 417 nM.

B4: Compound 13, cyclic peptide A R G D L A L p Sar (peptide)
peptide: cyclo(ARGDLAL[dP][Sar])
SMILES: CC(C)C[C@@H]1NC(=O)[C@H](CC(=O)O)NC(=O)CNC(=O)[C@H](CCCNC(=N)N)NC(=O)[C@H](C)NC(=O)CN(C)C(=O)[C@H]2CCCN2C(=O)[C@H](CC(C)C)NC(=O)[C@H](C)NC1=O
B4: the values for the IC50 in assay [1] and in assay [2] were 87.7 nM and 8.1 nM, respectively.

B5: Compound 17, cyclic peptide A R G D L A F p (NMe)K (peptide)
peptide: cyclo(ARGDLAF[dP][NMeK])
SMILES: CC(C)C[C@@H]1NC(=O)[C@H](CC(=O)O)NC(=O)CNC(=O)[C@H](CCCNC(=N)N)NC(=O)[C@H](C)NC(=O)[C@H](CCCCN)N(C)C(=O)[C@H]2CCCN2C(=O)[C@H](Cc2ccccc2)NC(=O)[C@H](C)NC1=O
Regarding B5, the concentration for half-maximal inhibition (IC50) in assay [1] is 143 nM; in assay [2], 0.7 nM.

In the case of YRGDLAFXX (head-to-tail cyclic; D-Pro (p) at position 8; N-methyl-Lys at position 9) [Compound 21, cyclic peptide Y R G D L A F p (NMe)K], the IC50 in assay [1] is 432 nM; in assay [2], 0.4 nM.

B6: Compound 20, cyclic peptide F R G D L A W p (NMe)K (peptide)
peptide: cyclo(FRGDLAW[dP][NMeK])
SMILES: CC(C)C[C@@H]1NC(=O)[C@H](CC(=O)O)NC(=O)CNC(=O)[C@H](CCCNC(=N)N)NC(=O)[C@H](Cc2ccccc2)NC(=O)[C@H](CCCCN)N(C)C(=O)[C@H]2CCCN2C(=O)[C@H](Cc2c[nH]c3ccccc23)NC(=O)[C@H](C)NC1=O
B6: the results for the half-inhibitory concentration (IC50) in assay [1] and in assay [2] were 204 nM and 0.12 nM, respectively.

B7: Compound 22, cyclic peptide W R G D L A F p (NMe)K (peptide)
peptide: cyclo(WRGDLAF[dP][NMeK])
SMILES: CC(C)C[C@@H]1NC(=O)[C@H](CC(=O)O)NC(=O)CNC(=O)[C@H](CCCNC(=N)N)NC(=O)[C@H](Cc2c[nH]c3ccccc23)NC(=O)[C@H](CCCCN)N(C)C(=O)[C@H]2CCCN2C(=O)[C@H](Cc2ccccc2)NC(=O)[C@H](C)NC1=O
In the case of B7, the IC50 in assay [1] amounted to 645 nM.

For FRGDLAYXX (head-to-tail cyclic; D-Pro (p) at position 8; N-methyl-Lys at position 9) [Compound 19, cyclic peptide F R G D L A Y p (NMe)K], the concentration for half-maximal inhibition (IC50) was found to be 685 nM in assay [1] and 0.39 nM in assay [2].

B8: Compound 15, cyclic peptide A R G D L A L p (NMe)K (peptide)
peptide: cyclo(ARGDLAL[dP][NMeK])
SMILES: CC(C)C[C@@H]1NC(=O)[C@H](CC(=O)O)NC(=O)CNC(=O)[C@H](CCCNC(=N)N)NC(=O)[C@H](C)NC(=O)[C@H](CCCCN)N(C)C(=O)[C@H]2CCCN2C(=O)[C@H](CC(C)C)NC(=O)[C@H](C)NC1=O
In the case of B8, the IC50 in assay [1] came to 415 nM; in assay [2], 4.3 nM.

B9: Compound 14, cyclic peptide A R G D L A L Sar P (peptide)
peptide: cyclo(ARGDLAL[Sar]P)
SMILES: CC(C)C[C@@H]1NC(=O)[C@H](CC(=O)O)NC(=O)CNC(=O)[C@H](CCCNC(=N)N)NC(=O)[C@H](C)NC(=O)[C@@H]2CCCN2C(=O)CN(C)C(=O)[C@H](CC(C)C)NC(=O)[C@H](C)NC1=O
notes: Comparative compound (*)
Consider B9, for which the IC50 was determined as 85.1 nM in assay [1] and 24.2 nM in assay [2].

B10: Compound 9, cyclic peptide A R G D F A L p P (peptide)
peptide: cyclo(ARGDFAL[dP]P)
SMILES: CC(C)C[C@@H]1NC(=O)[C@H](C)NC(=O)[C@H](Cc2ccccc2)NC(=O)[C@H](CC(=O)O)NC(=O)CNC(=O)[C@H](CCCNC(=N)N)NC(=O)[C@H](C)NC(=O)[C@@H]2CCCN2C(=O)[C@H]2CCCN2C1=O
notes: Comparative compound (*)
Regarding B10, the IC50 in assay [1] came to 65.2 nM; in assay [2], 63.4 nM.

B11: Compound 12, cyclic peptide F R G D L A L p P (peptide)
peptide: cyclo(FRGDLAL[dP]P)
SMILES: CC(C)C[C@@H]1NC(=O)[C@H](CC(=O)O)NC(=O)CNC(=O)[C@H](CCCNC(=N)N)NC(=O)[C@H](Cc2ccccc2)NC(=O)[C@@H]2CCCN2C(=O)[C@H]2CCCN2C(=O)[C@H](CC(C)C)NC(=O)[C@H](C)NC1=O
notes: also called Cpd; 12
For the molecule B11, the IC50 worked out at 127 nM in assay [3] and 254 nM in assay [4].

B12: Compound 7, cyclic peptide A R G D L d L p P (peptide)
peptide: cyclo(ARGDL[dD]L[dP]P)
SMILES: CC(C)C[C@@H]1NC(=O)[C@H](CC(=O)O)NC(=O)CNC(=O)[C@H](CCCNC(=N)N)NC(=O)[C@H](C)NC(=O)[C@@H]2CCCN2C(=O)[C@H]2CCCN2C(=O)[C@H](CC(C)C)NC(=O)[C@@H](CC(=O)O)NC1=O
notes: Comparative compound (*)
The molecule B12 showed an IC50 in assay [2] of 148 nM.

B13: Compound 5, cyclic peptide A R G D L L p P (peptide)
peptide: cyclo(ARGDLL[dP]P)
SMILES: CC(C)C[C@@H]1NC(=O)[C@H](CC(=O)O)NC(=O)CNC(=O)[C@H](CCCNC(=N)N)NC(=O)[C@H](C)NC(=O)[C@@H]2CCCN2C(=O)[C@H]2CCCN2C(=O)[C@H](CC(C)C)NC1=O
notes: Comparative compound (*)
In turn, B13 registered an IC50 in assay [2] of 292 nM.

Source of the values: patent publication US10562936B2, “Ligands for integrin αvβ6, synthesis and uses thereof” (Technische Universitat Munchen, priority 2015, dated 2020).
